The target in this assay is SUN2 (human (endogenous in HUVECs)) (UniProt Q9UH99). As to the kind of experiment: proximity ligation; Duolink in situ PLA on fixed, saponin-permeabilised HUVECs with primary antibodies against SUN2 and Nesprin1; cells exposed to PS (12 ± 4 dynes/cm^2) or OS (0.5 ± 4 dynes/cm^2) for 6 h.
Sequence of UniProt Q9UH99 (Q9UH99 whole entry): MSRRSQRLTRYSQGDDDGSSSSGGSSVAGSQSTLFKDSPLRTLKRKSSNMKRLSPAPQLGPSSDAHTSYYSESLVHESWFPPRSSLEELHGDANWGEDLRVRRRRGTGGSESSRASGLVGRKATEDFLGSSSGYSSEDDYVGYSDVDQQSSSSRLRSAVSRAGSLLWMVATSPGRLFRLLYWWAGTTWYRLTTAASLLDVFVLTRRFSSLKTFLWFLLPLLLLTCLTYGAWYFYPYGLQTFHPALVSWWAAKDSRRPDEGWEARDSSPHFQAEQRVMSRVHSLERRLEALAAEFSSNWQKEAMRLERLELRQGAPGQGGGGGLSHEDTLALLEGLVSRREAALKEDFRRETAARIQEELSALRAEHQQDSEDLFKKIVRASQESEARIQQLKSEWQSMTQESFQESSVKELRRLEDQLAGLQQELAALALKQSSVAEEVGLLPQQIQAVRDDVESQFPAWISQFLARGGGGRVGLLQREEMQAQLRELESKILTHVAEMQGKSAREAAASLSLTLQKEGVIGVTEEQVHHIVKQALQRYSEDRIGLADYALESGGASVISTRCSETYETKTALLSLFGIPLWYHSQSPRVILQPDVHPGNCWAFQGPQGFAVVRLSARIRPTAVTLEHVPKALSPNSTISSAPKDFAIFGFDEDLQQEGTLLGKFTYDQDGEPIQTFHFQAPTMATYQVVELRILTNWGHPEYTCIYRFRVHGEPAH

Nesprin1, Q8NF91 1-8797 had a PLA punctuated signals per cell (cells exposed to OS) of 2 per cell and a PLA punctuated signals per cell (cells exposed to PS) of 7 per cell.

These data come from paper PMC7330101.
